± gives the uncertainty stated by the source.
Experiment: self-splicing fitness, log relative to wild type (ln ratio); higher = more splicing; Tetrahymena group I intron in knt gene, E. coli kanamycin selection, DiMSum; sequences stand for … in CUCUCU…GGAGGGAAAAGUUAUCAGGCAUGCACCUGGUAGCUAGUCUUUAAACCAAUAGAUUGCAUCGGUUUAAAAGGCAAGACCGUCAAAUUGCGGGAAAGGGGUCAACAGCCGUUCAGUACCAAGUCUCAGGGGAAACUUUGAGAUGGCCUUGCAAAGGGUAUGGUAAUAAGCUGACGGACAUGGUCCUAACCACGCAGCCAAGUCCUAAGUCAACAGAUCUUCUGUUGAUAUGGAUGCAGUUCACAGACUAAAUGUCGGUCGGGGAAGAUGUAUUCUUCUCAUAAGAUAUAGUCGGACCUCUCCUUAAUGGGAGCUAGCGGAUGAAGUGAUGCAACACUGGAGCCGCUGGGAACUAAUUUGUAUGCGAAAGUAUAUUGAUUAGUUUUGGAGUACUCGUGGUCG
Outline: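 Six replicate transformations of E. coli BL21(DE3) with a pET-22b(+) library were grown overnight at 37°C or 30°C. The library randomised all eight P1ex-region intron nucleotides, the intron lying in the knt kanamycin-resistance gene, and plates were LB agar with or without 25 μg/mL kanamycin plus 100 μg/mL carbenicillin, 50 μM IPTG and 0.2% rhamnose. Pooled colonies were amplicon-sequenced on an Illumina HiSeq 2500, and fitness is the DiMSum error-weighted combination of wild-type-normalised replicate fold changes, kanamycin versus none.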

Sequence | self-splicing fitness (ln) (30 °C) | self-splicing fitness (ln) (37 °C)
GUUCAGCAAUAUUACGCACG | -0.107 ± 0.22 | -0.682 ± 0.31
GUUCAGCAAUAUUACGCCUA | -0.396 ± 0.15 | 0.127 ± 0.14
GUUCAGCAAUAUUACGCGGU | -1.52 ± 0.11 | -1.69 ± 0.14
GUUCAGCAAUAUUACGGACG | -2.15 ± 0.11 | -0.428 ± 0.11
GUUCAGCAAUAUUACGGAGC | -2.39 ± 0.32 | -1.53 ± 0.42
GUUCAGCAAUAUUACGGCAA | -0.436 ± 0.078 | -0.458 ± 0.1
GUUCAGCAAUAUUACGGCCU | -1.02 ± 0.2 | -0.57 ± 0.24
GUUCAGCAAUAUUACGGGAU | -2.24 ± 0.18 | -1.58 ± 0.35
GUUCAGCAAUAUUACGGGCA | – | -1.11 ± 0.34
GUUCAGCAAUAUUACGGGCG | -1.57 ± 0.15 | -0.592 ± 0.15
GUUCAGCAAUAUUACGGGGA | -4.6 ± 0.46 | -2.56 ± 0.22
GUUCAGCAAUAUUACGGUCC | -0.652 ± 0.19 | 0.182 ± 0.23
GUUCAGCAAUAUUACGGUGA | -2.66 ± 0.17 | -1.08 ± 0.13
GUUCAGCAAUAUUACGGUGU | -0.503 ± 0.05 | 0.262 ± 0.075
GUUCAGCAAUAUUACGUUAC | -1.98 ± 0.13 | -1 ± 0.094
GUUCAGCAAUAUUACGUUGG | -2.92 ± 0.17 | -1.62 ± 0.15
GUUGAGCAAUAUUACGAAAG | -2.93 ± 0.38 | 0.317 ± 0.17
GUUGAGCAAUAUUACGAACG | – | -1.12 ± 0.35
GUUGAGCAAUAUUACGACAA | -2.38 ± 0.33 | -2.54 ± 0.44
GUUGAGCAAUAUUACGACAU | -0.358 ± 0.014 | -0.067 ± 0.034
GUUGAGCAAUAUUACGACUA | -2.4 ± 0.18 | -2.85 ± 0.22

Sequence | self-splicing fitness (ln) (30 °C) | self-splicing fitness (ln) (37 °C)
GUUGAGCAAUAUUACGAGAA | – | -0.619 ± 0.5
GUUGAGCAAUAUUACGCAAA | -2.73 ± 0.35 | -0.984 ± 0.14
GUUGAGCAAUAUUACGCACU | -1.26 ± 0.15 | -0.723 ± 0.2
GUUGAGCAAUAUUACGCAUA | -2.36 ± 0.24 | -1.1 ± 0.17
GUUGAGCAAUAUUACGCAUG | -2.87 ± 0.16 | -1.18 ± 0.16
GUUGAGCAAUAUUACGCCAU | – | -1.09 ± 0.35
GUUGAGCAAUAUUACGCCGG | – | 0.442 ± 0.29
GUUGAGCAAUAUUACGCGAG | -1.35 ± 0.18 | -0.457 ± 0.17
GUUGAGCAAUAUUACGCUGA | -3.9 ± 0.35 | -2.61 ± 0.24
GUUGAGCAAUAUUACGGCGC | -0.744 ± 0.18 | -0.21 ± 0.22
GUUGAGCAAUAUUACGGCGU | -1.02 ± 0.13 | -0.302 ± 0.2
GUUGAGCAAUAUUACGGGUA | -2.46 ± 0.26 | –
GUUGAGCAAUAUUACGGUGA | – | -2.78 ± 0.44
GUUGAGCAAUAUUACGUAGC | -0.983 ± 0.2 | -2.07 ± 0.35
GUUGAGCAAUAUUACGUAGU | -2.05 ± 0.15 | -1.31 ± 0.18
GUUGAGCAAUAUUACGUCUU | -1.53 ± 0.17 | -1.72 ± 0.2
GUUGAGCAAUAUUACGUGCU | -1.95 ± 0.35 | –
GUUGAGCAAUAUUACGUUAU | -3.37 ± 0.18 | -0.445 ± 0.17
GUUUAGCAAUAUUACGAACU | – | -2.69 ± 0.44
GUUUAGCAAUAUUACGACGU | -0.531 ± 0.1 | 0.347 ± 0.14
